Substitutions are numbered along the chain they refer to. Names and notes keep the numbering of the source.
T1: PUF4 RNA-binding domain (Saccharomyces cerevisiae, UniProt P25339 537-888)
T1 sequence: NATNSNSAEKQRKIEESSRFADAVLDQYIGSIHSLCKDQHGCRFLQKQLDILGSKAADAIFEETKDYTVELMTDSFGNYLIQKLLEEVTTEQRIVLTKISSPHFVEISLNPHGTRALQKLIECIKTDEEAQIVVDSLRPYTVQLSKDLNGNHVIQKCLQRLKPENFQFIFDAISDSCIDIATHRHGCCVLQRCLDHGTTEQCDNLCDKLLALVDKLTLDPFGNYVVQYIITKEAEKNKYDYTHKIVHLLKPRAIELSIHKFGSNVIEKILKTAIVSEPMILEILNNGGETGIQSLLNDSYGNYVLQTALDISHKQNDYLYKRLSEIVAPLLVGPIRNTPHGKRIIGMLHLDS

B1: Ic_S4_P5E.1_K5.1_C5.1_H5.1_A5.1_[T5G]_[A7C]_F5.1_[T9C]_[A10G]_T5.1 (ssRNA)
RNA: UUUGACAACUGAUCGUUCUUUCUUGUAGUCUCGUUCUUUCUCGAUCAGUUGUCUUU
B2: Ic_S4_P5E.1_K5.1_C5.1_H5.1_A5.1_[T5C]_[T6A]_[A7T]_F5.1_[T8A]_[T9A]_[A10C]_T5.1 (ssRNA)
RNA: B1 RNA with G28C, U29A, C30U, U31A, C32A, G33C
B3: Ic_S4_P5E.1_K5.1_C5.1_H5.1_A5.1_[T5A]_[A7C]_F5.1_[T8C]_[T9G]_[A10C]_T5.1 (ssRNA)
RNA: B1 RNA with G28A, U31C, C32G, G33C
B4: Ic_S4_P5E.1_K5.1_C5.1_H5.1_A5.1_[T6G]_[A7C]_F5.1_[T8C]_[T9A]_[A10T]_T5.1 (ssRNA)
RNA: B1 RNA with G28U, U29G, U31C, C32A, G33U
B5: Ic_S4_P5E.1_K5.1_C5.1_H5.1_A5.1_[T5C]_[T6C]_F5.1_[T8C]_[T9A]_[A10T]_T5.1 (ssRNA)
RNA: B1 RNA with G28C, U29C, C30A, U31C, C32A, G33U
B6: Ic_S4_P5E.1_K5.1_C5.1_H5.1_A5.1_[T5C]_F5.1_[T8A]_[T9C]_[A10C]_T5.1 (ssRNA)
RNA: B1 RNA with G28C, C30A, U31A, G33C
B7: Ic_S4_P5E.1_K5.1_C5.1_H5.1_A5.1_[T5A]_[T6A]_F5.1_[T8C]_[T9A]_[A10C]_T5.1 (ssRNA)
RNA: B1 RNA with G28A, U29A, C30A, U31C, C32A, G33C
B8: Ic_S4_P5E.1_K5.1_C5.1_H5.1_A5.1_[T5G]_[T6C]_[A7T]_F5.1_[T8C]_[T9G]_[A10T]_T5.1 (ssRNA)
RNA: B1 RNA with U29C, C30U, U31C, C32G, G33U
B9: Ic_S4_P5E.1_K5.1_C5.1_H5.1_A5.1_[T5C]_[A7G]_F5.1_[T8G]_T5.1 (ssRNA)
RNA: B1 RNA with G28C, C30G, U31G, C32U, G33A
B10: Ic_S4_P5E.1_K5.1_C5.1_H5.1_A5.1_[T5C]_[T6G]_[A7C]_F5.1_[T9A]_[A10C]_T5.1 (ssRNA)
RNA: B1 RNA with G28C, U29G, C32A, G33C
B11: Ic_S4_P5E.1_K5.1_C5.1_H5.1_A5.1_[T5C]_[A7C]_F5.1_[T8A]_[T9C]_[A10G]_T5.1 (ssRNA)
RNA: B1 RNA with G28C, U31A
B12: Ic_S4_P5E.1_K5.1_C5.1_H5.1_A5.1_[A7T]_F5.1_[T9C]_[A10T]_T5.1 (ssRNA)
RNA: B1 RNA with G28U, C30U, G33U
B13: Ic_S4_P5E.1_K5.1_C5.1_H5.1_A5.1_[T6A]_[A7G]_F5.1_[T8C]_[T9A]_[A10T]_T5.1 (ssRNA)
RNA: B1 RNA with G28U, U29A, C30G, U31C, C32A, G33U
B14: Ic_S4_P5E.1_K5.1_C5.1_H5.1_A5.1_[T5G]_[T6C]_[A7G]_F5.1_[T9A]_T5.1 (ssRNA)
RNA: B1 RNA with U29C, C30G, C32A, G33A
B15: Ic_S4_P5E.1_K5.1_C5.1_H5.1_A5.1_[T6C]_[A7T]_F5.1_[T9C]_[A10C]_T5.1 (ssRNA)
RNA: B1 RNA with G28U, U29C, C30U, G33C
B16: Ic_S4_P5E.1_K5.1_C5.1_H5.1_A5.1_[T6G]_[A7T]_F5.1_[T8A]_[T9C]_[A10C]_T5.1 (ssRNA)
RNA: B1 RNA with G28U, U29G, C30U, U31A, G33C
B17: Ic_S4_P5E.1_K5.1_C5.1_H5.1_A5.1_[T6A]_[A7T]_F5.1_[T8C]_[T9C]_[A10T]_T5.1 (ssRNA)
RNA: B1 RNA with G28U, U29A, C30U, U31C, G33U
B18: Ic_S4_P5E.1_K5.1_C5.1_H5.1_A5.1_[A7G]_F5.1_[T8G]_[A10T]_T5.1 (ssRNA)
RNA: B1 RNA with G28U, C30G, U31G, C32U, G33U
B19: Ic_S4_P5E.1_K5.1_C5.1_H5.1_A5.1_[T5C]_[A7C]_F5.1_[A10T]_T5.1 (ssRNA)
RNA: B1 RNA with G28C, C32U, G33U
B20: Ic_S4_P5E.1_K5.1_C5.1_H5.1_A5.1_[A7G]_F5.1_[T8C]_[T9C]_[A10T]_T5.1 (ssRNA)
RNA: B1 RNA with G28U, C30G, U31C, G33U
B21: Ic_S4_P5E.1_K5.1_C5.1_H5.1_A5.1_[T6G]_[A7G]_F5.1_[T8C]_[A10C]_T5.1 (ssRNA)
RNA: B1 RNA with G28U, U29G, C30G, U31C, C32U, G33C
B22: Ic_S4_P5E.1_K5.1_C5.1_H5.1_A5.1_[T5C]_[T6A]_[A7G]_F5.1_[T9G]_[A10C]_T5.1 (ssRNA)
RNA: B1 RNA with G28C, U29A, C30G, C32G, G33C
B23: Ic_S4_P5E.1_K5.1_C5.1_H5.1_A5.1_[T5G]_[T6C]_F5.1_[T8C]_[A10T]_T5.1 (ssRNA)
RNA: B1 RNA with U29C, C30A, U31C, C32U, G33U
B24: Ic_S4_P5E.1_K5.1_C5.1_H5.1_A5.1_[T5A]_[A7T]_F5.1_[T8A]_[A10C]_T5.1 (ssRNA)
RNA: B1 RNA with G28A, C30U, U31A, C32U, G33C
B25: Ic_S4_P5E.1_K5.1_C5.1_H5.1_A5.1_[T6A]_[A7C]_F5.1_[T8C]_[T9G]_[A10G]_T5.1 (ssRNA)
RNA: B1 RNA with G28U, U29A, U31C, C32G

Target: T1, PUF4 RNA-binding domain
Assay: Mg; RNA-MaP; 20 mM Na-HEPES pH 7.4, 30 mM KOAc, 0.75 mM MgCl2, 0.1% Tween-20, 5% glycerol, 0.1 mg/mL BSA, 2 mM DTT; 25 C; 0.0125-409.6 nM protein
Conditions: tags: N-His6-TEV cleaved; C-SNAP kept, Cy3B-labelled; label: tethered on chip by stalled RNA polymerase

Binder	Kd
B1	425 nM
B2	7.13 nM
B3	946 nM
B4	56.4 nM
B5	158 nM
B6	229 nM
B7	190 nM
B8	476 nM
B9	34 nM
B10	6.66 nM
B11	> 2300 nM
B12	15.6 nM
B13	56.4 nM
B14	25.3 nM
B15	17.2 nM
B16	28.6 nM
B17	14.7 nM
B18	881 nM
B19	10.9 nM
B20	402 nM
B21	849 nM
B22	10.6 nM
B23	172 nM
B24	126 nM
B25	144 nM
UCUCUUUGUAUAGUGUCUCUU (ssRNA) [Ib_S1_P4E.1_K4.1_C4.1_H4.1_A4.1_[T7G]_F4.1_[A9G]_T4.1]	13 nM
UCUCUUUGUAUAAUGUCUCUU (ssRNA) [Ic_S1_P4E.1_K4.1_C4.1_H4.1_A4.1_[T7A]_F4.1_[A9G]_T4.1]	6.03 nM
UCUCUUUGUAUACUCUCUCUU (ssRNA) [Ic_S1_P4E.1_K4.1_C4.1_H4.1_A4.1_[T7C]_F4.1_[A9C]_T4.1]	9.32 nM
UCUCUUUGUAUAGUCUCUCUU (ssRNA) [Ic_S1_P4E.1_K4.1_C4.1_H4.1_A4.1_[T7G]_F4.1_[A9C]_T4.1]	23.4 nM
